Our source for the stoichiometry N, Kd and other values is paper PMC9512702.

For orientation: stoichiometry N means a count of units in the complex or per binding partner. Usually Kd stands for a measure of binding affinity in units of concentration. The low end stands for higher affinity, the high end for lower affinity.

Assay [1] has as its target mammalian expressed RBD (mRBD) of SARS-CoV-2 spike (SARS-CoV-2) (UniProt P0DTC2). Briefly: SEC-MALS.
The target is the same in assay [2]. Briefly: SPR. (In SPR one partner is held on a chip, and binding of the other changes the refractive index at the surface.)
Assay [3] shares this target. Briefly: nanoDSF thermal shift. On the technique in general: In DSF a fluorescence change marks the thermal transition of the protein.

Take LCB1 (designed binder): the stoichiometry N in assay [1] was 1 LCB1:RBD. Moreover, the Kd in assay [2] was determined as 0.042 nM. Moreover, the other in assay [3] worked out at 16 °C.
